According to patent US20200024348A1 (Alector, published 2020):
Numbering of substitutions follows the chain as printed. In names and notes the source's numbering stands.

T1: human Sortilin (SORT1), full-length untagged, expressed on cells (human, UniProt Q99523 78-831)
T1 construct: U251 cells expressing SORT1 endogenously (down-regulation and PGRN secretion assays); also called human SORT1
T1 sequence: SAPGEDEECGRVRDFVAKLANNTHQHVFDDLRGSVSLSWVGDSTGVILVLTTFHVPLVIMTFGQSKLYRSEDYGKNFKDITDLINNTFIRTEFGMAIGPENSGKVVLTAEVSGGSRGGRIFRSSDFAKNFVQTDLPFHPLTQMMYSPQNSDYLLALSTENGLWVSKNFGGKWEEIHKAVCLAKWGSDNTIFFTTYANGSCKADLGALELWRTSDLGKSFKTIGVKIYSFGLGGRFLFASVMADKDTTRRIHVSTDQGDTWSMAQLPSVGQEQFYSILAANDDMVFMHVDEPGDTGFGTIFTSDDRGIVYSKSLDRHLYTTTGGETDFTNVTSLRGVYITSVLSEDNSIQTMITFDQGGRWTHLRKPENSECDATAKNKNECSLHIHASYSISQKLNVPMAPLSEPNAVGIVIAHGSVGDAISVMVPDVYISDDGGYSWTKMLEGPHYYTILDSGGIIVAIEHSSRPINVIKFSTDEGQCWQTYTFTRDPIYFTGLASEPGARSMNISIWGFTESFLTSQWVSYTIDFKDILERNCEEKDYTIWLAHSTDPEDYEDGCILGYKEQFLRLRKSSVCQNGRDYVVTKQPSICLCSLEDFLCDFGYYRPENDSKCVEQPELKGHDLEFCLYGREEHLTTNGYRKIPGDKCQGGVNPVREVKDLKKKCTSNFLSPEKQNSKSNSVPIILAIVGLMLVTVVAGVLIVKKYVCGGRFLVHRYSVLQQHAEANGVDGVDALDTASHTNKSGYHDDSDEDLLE

T2: histidine-tagged human SORT1 (R&D Systems) (human, UniProt Q99523 78-755)
T2 construct: Bought recombinant protein; also called His-tagged human SORT1; not shown: histidine tag
T2 sequence: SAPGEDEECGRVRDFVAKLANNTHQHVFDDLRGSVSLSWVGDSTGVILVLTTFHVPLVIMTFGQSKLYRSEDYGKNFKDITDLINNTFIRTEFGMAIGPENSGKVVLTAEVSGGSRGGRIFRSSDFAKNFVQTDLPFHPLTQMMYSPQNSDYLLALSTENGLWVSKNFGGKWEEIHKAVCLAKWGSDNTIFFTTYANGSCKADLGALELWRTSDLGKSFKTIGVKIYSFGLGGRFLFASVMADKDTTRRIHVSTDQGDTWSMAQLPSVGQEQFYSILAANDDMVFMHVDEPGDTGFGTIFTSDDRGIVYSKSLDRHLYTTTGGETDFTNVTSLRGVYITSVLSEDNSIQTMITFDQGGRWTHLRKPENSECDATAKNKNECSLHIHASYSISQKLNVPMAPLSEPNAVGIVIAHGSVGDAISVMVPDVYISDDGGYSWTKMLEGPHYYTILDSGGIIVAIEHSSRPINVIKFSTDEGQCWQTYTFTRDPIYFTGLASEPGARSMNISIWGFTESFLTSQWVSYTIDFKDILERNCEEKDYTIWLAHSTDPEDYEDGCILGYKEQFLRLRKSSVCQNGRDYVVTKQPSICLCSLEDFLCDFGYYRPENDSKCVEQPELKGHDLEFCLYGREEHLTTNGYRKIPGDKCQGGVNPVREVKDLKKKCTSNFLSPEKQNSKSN

B1: S-60-1 (antibody, IgG1, V domains shown)
VH: QVQLQESGPGLVKPSETLSLTCAVSGYSISSVRYWGWIRQPPGKGLEWIGSIYHSGSTYYNPSLKSRVTISVDTSKNQFSLKLSSVTAADTAVYYCARQGSIKQGYYGMDVWGQGTTVTVSS
VL: not shown
notes: Tested on the huIgG1 (WT) backbone
B2: S-60-4 (antibody, IgG1, V domains shown)
VH: B1 VH with V32G, R33Y, S51T
VL: DIVMTQSPLSLPVTPGESASISCRSSQGLLRSNGYNYLDWYLQKPGQSPQLLIYLGSNRASGVPDRFSGSGSGTDFTLKISRVEAEDVGVYYCMQQQETPLTFGGGTKVEIK
notes: as for B1
B3: S-60-16 (antibody, IgG1, V domains shown)
VH: B1 VH with V32G, R33Y, S51T
VL: not shown
notes: as for B1
B4: S-60-15 (antibody, IgG1, V domains shown)
VH: B1 VH with V32G, R33Y, S51T
VL: not shown
B5: S-60-2 (antibody, IgG1, V domains shown)
VH: B1 VH with S51A, H54P
VL: not shown
notes: as for B1
B6: S-60-8 (antibody, IgG1, V domains shown)
VH: B1 VH with V32G, R33Y, S51T
VL: not shown
notes: as for B1
B7: S-60-7 (antibody, IgG1, V domains shown)
VH: B1 VH with V32G, R33Y, S51T
VL: not shown
notes: Tested on the huIgG1 (WT) backbone; also called S-60-5; S-60-6
B8: S-60-15 [N33 (wt)] huIgG1 LALAPS (antibody, V domains shown)
VH: B1 VH with V32G, R33Y, S51T
VL: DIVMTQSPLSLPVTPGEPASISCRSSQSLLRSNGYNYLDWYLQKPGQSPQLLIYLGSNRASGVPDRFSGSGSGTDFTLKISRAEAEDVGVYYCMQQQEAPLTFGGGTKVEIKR
notes: huIgG1 with L234A/L235A/P331S (LALAPS)
B9: S-60-15.9 [N33Y] (antibody, human IgG1, kappa, L234A L235A, V domains shown)
VH: B1 VH with V32G, R33Y, S51T
VL: DIVMTQSPLSLPVTPGEPASISCRSSQSLLRSYGYNYLDWYLQKPGQSPQLLIYLGSNRASGVPDRFSGSGSGTDFTLKISRAEAEDVGVYYCMQQQEAPLTFGGGTKVEIKR
notes: huIgG1 LALAPS
B10: S-60-15.13 [N33I] (antibody, human IgG1, kappa, L234A L235A, V domains shown)
VH: B1 VH with V32G, R33Y, S51T
VL: B9 VL with Y33I
notes: huIgG1 LALAPS
B11: S-60-15.10 [N33E] (antibody, human IgG1, kappa, L234A L235A, V domains shown)
VH: B1 VH with V32G, R33Y, S51T
VL: B9 VL with Y33E
notes: huIgG1 LALAPS
B12: S-60-15.4 [N33R] (antibody, human IgG1, kappa, L234A L235A, V domains shown)
VH: B1 VH with V32G, R33Y, S51T
VL: B9 VL with Y33R
notes: huIgG1 LALAPS
B13: S-60-15.11 [N33W] (antibody, human IgG1, kappa, L234A L235A, V domains shown)
VH: B1 VH with V32G, R33Y, S51T
VL: B9 VL with Y33W
notes: huIgG1 LALAPS
B14: S-60-15.2 [N33S] (antibody, human IgG1, kappa, L234A L235A, V domains shown)
VH: B1 VH with V32G, R33Y, S51T
VL: B9 VL with Y33S
notes: huIgG1 LALAPS
B15: S-60-15.14 [N33V] (antibody, human IgG1, kappa, L234A L235A, V domains shown)
VH: B1 VH with V32G, R33Y, S51T
VL: B9 VL with Y33V
notes: huIgG1 LALAPS
B16: S-60-15.15 [N33A] (antibody, human IgG1, kappa, L234A L235A, V domains shown)
VH: B1 VH with V32G, R33Y, S51T
VL: B9 VL with Y33A
notes: huIgG1 LALAPS
B17: S-60-15.7 [N33K] (antibody, human IgG1, kappa, L234A L235A, V domains shown)
VH: B1 VH with V32G, R33Y, S51T
VL: B9 VL with Y33K
notes: huIgG1 LALAPS
B18: S-60-15.16 [N33M] (antibody, human IgG1, kappa, L234A L235A, V domains shown)
VH: B1 VH with V32G, R33Y, S51T
VL: B9 VL with Y33M
notes: huIgG1 LALAPS
B19: S-60-15.8 [N33Q] (antibody, human IgG1, kappa, L234A L235A, V domains shown)
VH: B1 VH with V32G, R33Y, S51T
VL: B9 VL with Y33Q
notes: huIgG1 LALAPS
B20: S-60-15.12 [N33F] (antibody, human IgG1, kappa, L234A L235A, V domains shown)
VH: B1 VH with V32G, R33Y, S51T
VL: B9 VL with Y33F
notes: huIgG1 LALAPS
B21: S-60-15.6 [N33H] (antibody, human IgG1, kappa, L234A L235A, V domains shown)
VH: B1 VH with V32G, R33Y, S51T
VL: B9 VL with Y33H
notes: huIgG1 LALAPS
B22: S-60-15.17 [N33L] (antibody, human IgG1, kappa, L234A L235A, V domains shown)
VH: B1 VH with V32G, R33Y, S51T
VL: B9 VL with Y33L
notes: huIgG1 LALAPS
B23: S-60-15.3 [N33G] (antibody, human IgG1, kappa, L234A L235A, V domains shown)
VH: B1 VH with V32G, R33Y, S51T
VL: B9 VL with Y33G
notes: huIgG1 LALAPS

Target: T1, human Sortilin (SORT1), full-length …
Assay: FACS on HEK293T cells expressing human SORT1, huIgG1
Procedure: For the binding assay, stable HEK293T cells expressing human SORT1 were harvested by trypsinization, washed in PBS, counted and plated on 96-well u-bottom plates at 1×10⁵ cells/well. The plates were spun at 1,400 rpm for 3 minutes and primary anti-SORT1 or control antibodies were added in FACS buffer (PBS+2 FBS) and incubated on ice for one hour. Cells were subsequently centrifuged as before and washed thrice with FACS buffer. Cells were then incubated with anti-human APC conjugated secondary antibody (BD Biosciences) in FACS buffer for 30 minutes on ice. Cells were again washed three times with FACS buffer and analyzed on a BD FACS Canto or an Intellicyt Flow Cytometer. Binding was measured as median fluorescent intensity (MFI) in the […] channel of the GFP positive cell population.
All antibodies were tested on the huIgG1 backbone.

Kd | Binder
7.22 nM | B1
0.634 nM | B2
0.78 nM | B3
0.56 nM | B4
11 nM | B5
0.468 nM | B6
0.787 nM | B7

Target: T2, histidine-tagged human SORT1 (R&D …)
Assay: BLI (Octet RED96), antibody captured on anti-human IgG Fc sensor, 20 nM His-tagged human SORT1, 1:1 fit
Procedure: The G1m3 or G1m(f) allotype with L234A/L235A/P331S (“LALAPS” motif) mutations was used as a background (Jefferis R and Lefranc M-P, Mabs, 2009 July-August; 1(4): 332-338). […] Bio-layer interferometry (BLI) data was collected at a rate of 5 Hz at 25° C. on a Pall ForteBio Octet RED96 instrument. Data analysis was performed using ForteBio Data Analysis Software, version 9.0. Standard kinetic buffer (PBS, 0.1 BSA, 0.02 Tween-20, pH 7.2) was used for the assay and for preparing reagents. For all assays, sensor tips were equilibrated in buffer prior to analysis.
Twenty nM histidine-tagged human SORT1 (R&D Systems, Minneapolis, Minn.) was then bound to the captured anti-SORT1 surface (200 s association time, 1200 s dissociation time). […] Full, local fitting using a 1:1 interaction model was applied to extract association and dissociation rate constants (kₐ and kd, respectively) for each N33 mutant. Affinity constants (KD) were calculated from the ratio […]. Different amino acid substitutions were made at N33 and tested for binding to SORT1 in an off-rate screen (under non-stress conditions) as shown in Table 9.

Kd | koff | kon | Binder
0.27 nM | – | – | B8
1.28 nM | 0.000675 s⁻¹ | 511000 M⁻¹ s⁻¹ | B9
0.46 nM | 0.000228 s⁻¹ | 491000 M⁻¹ s⁻¹ | B10
2.01 nM | ~0.00136 s⁻¹ | 676000 M⁻¹ s⁻¹ | B11
0.88 nM | 0.00046 s⁻¹ | 524000 M⁻¹ s⁻¹ | B12
0.96 nM | 0.000579 s⁻¹ | 601000 M⁻¹ s⁻¹ | B13
0.44 nM | 0.000247 s⁻¹ | 563000 M⁻¹ s⁻¹ | B14
0.69 nM | 0.000306 s⁻¹ | 445000 M⁻¹ s⁻¹ | B15
0.625 nM | 0.000315 s⁻¹ | 493000 M⁻¹ s⁻¹ | B16
0.965 nM | 0.000547 s⁻¹ | 563000 M⁻¹ s⁻¹ | B17
0.85 nM | 0.000423 s⁻¹ | 495000 M⁻¹ s⁻¹ | B18
0.905 nM | 0.000653 s⁻¹ | 609000 M⁻¹ s⁻¹ | B19
2.91 nM | 0.000816 s⁻¹ | 280000 M⁻¹ s⁻¹ | B20
0.823 nM | 0.00046 s⁻¹ | 548000 M⁻¹ s⁻¹ | B21
1.03 nM | 0.000425 s⁻¹ | 412000 M⁻¹ s⁻¹ | B22
0.825 nM | 0.000411 s⁻¹ | 498000 M⁻¹ s⁻¹ | B23

Target: T1, human Sortilin (SORT1), full-length …
Assay: cell-based or functional assay

DR at 1.25 nM antibody (IgG): percent SORT1 downregulation, U251 cells | Binder
70.1% | B3
60.9% | B4

Target: T1, human Sortilin (SORT1), full-length …
Assay: cell-based or functional assay
Remark: another data set of the same source

DR EC50 (M): down-regulation of cell surface SORT1, U251 cells, FACS | DR at 0.6 nM antibody (IgG): percent SORT1 downregulation, U251 cells | Binder
2.73e-10 M | 50.4% | B1
4.18e-10 M | 39.6% | B2
4.2e-10 M | 40.3% | B5
5.76e-10 M | 32% | B6
4.47e-10 M | 32.6% | B7
